# Laboratory results taken from patent US20030013150.
# B1: recombinant-K2S (r-K2S) expressed in non-gpIII fusion form in E. coli XM[K2S] (protein)
# chain: SEGNSDCYFGNGSAYRGTHSLTESGASCLPWNSMILIGKVYTAQNPSAQALGLGKHNYCRNPDGDAKPWCHVLKNRRLTWEYCDVPSCSTCGLRQYSQPQFRIKGGLFADIASHPWQAAIFAKHRRSPGERFLCGGILISSCWILSAAHCFQERFPPHHLTVILGRTYRVVPGEEEQKFEVEKYIVHKEFDDDTYDNDIALLQLKSDSSRCAQESSVVRTVCLPPADLQLPDWTECELSGYGKHEALSPFYSERLKEAHVRLYPSSRCTSQHLLNRTVTDNMLCAGDTRSGGPQANLHDACQGDSGGPLVCLNDGRMTLVGIISWGLGCGQKDVPGVYTKVTNYLDWIRDNMRP
# B2: standard melanoma tPA 86/670 (protein)
# chain: SYQVICRDEKTQMIYQQHQSWLRPVLRSNRVEYCWCNSGRAQCHSVPVKSCSEPRCFNGGTCQQALYFSDFVCQCPEGFAGKCCEIDTRATCYEDQGISYRGTWSTAESGAECTNWNSSALAQKPYSGRRPDAIRLGLGNHNYCRNPDRDSKPWCYVFKAGKYSSEFCSTPACSEGNSDCYFGNGSAYRGTHSLTESGASCLPWNSMILIGKVYTAQNPSAQALGLGKHNYCRNPDGDAKPWCHVLKNRRLTWEYCDVPSCSTCGLRQYSQPQFRIKGGLFADIASHPWQAAIFAKHRRSPGERFLCGGILISSCWILSAAHCFQERFPPHHLTVILGRTYRVVPGEEEQKFEVEKYIVHKEFDDDTYDNDIALLQLKSDSSRCAQESSVVRTVCLPPADLQLPDWTECELSGYGKHEALSPFYSERLKEAHVRLYPSSRCTSQHLLNRTVTDNMLCAGDTRSGGPQANLHDACQGDSGGPLVCLNDGRMTLVGIISWGLGCGQKDVPGVYTKVTNYLDWIRDNMRP
# Target: plasminogen
# Sequence (P00747 20-810): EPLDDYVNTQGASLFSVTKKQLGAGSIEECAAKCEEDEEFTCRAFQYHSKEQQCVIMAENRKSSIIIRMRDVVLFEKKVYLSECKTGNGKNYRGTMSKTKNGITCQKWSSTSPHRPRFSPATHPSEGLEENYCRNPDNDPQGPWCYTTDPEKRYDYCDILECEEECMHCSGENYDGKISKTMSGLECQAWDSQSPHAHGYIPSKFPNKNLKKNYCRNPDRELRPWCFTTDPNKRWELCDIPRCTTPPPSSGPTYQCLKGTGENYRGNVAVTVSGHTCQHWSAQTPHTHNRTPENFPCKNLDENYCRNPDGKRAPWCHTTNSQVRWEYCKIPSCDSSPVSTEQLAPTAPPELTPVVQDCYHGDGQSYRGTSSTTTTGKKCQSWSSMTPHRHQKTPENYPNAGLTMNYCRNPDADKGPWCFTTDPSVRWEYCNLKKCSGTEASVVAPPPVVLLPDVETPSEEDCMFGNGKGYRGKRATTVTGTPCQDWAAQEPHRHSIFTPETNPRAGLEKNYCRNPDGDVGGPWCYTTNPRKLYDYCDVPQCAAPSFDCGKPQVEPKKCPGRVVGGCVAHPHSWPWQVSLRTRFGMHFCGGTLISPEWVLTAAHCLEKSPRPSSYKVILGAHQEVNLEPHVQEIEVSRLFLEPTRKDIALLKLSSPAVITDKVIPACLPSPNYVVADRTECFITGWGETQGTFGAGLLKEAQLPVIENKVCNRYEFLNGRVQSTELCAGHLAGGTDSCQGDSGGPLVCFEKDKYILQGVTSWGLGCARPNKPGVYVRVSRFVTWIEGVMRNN
Protein,copolymerized plasminogen polyacrylamide gel electrophoresis (clearing zones),"fibrinogen-dependent enzymatic activity (amidolytic assay, plasminogen and S-2251)","fibrinogen-dependent enzymatic activity of the periplasmic r-K2S preparation (amidolytic assay, plasminogen and S-2251)"
B1,Transparent areas of serine protease digested plasminogen were observed only in the ammonium sulfate precipitated culture supernatants of E. coli XM[K2S] at 34 and 37 kDa postions,The culture supernatant r-K2S gave the fibrinogen-dependent enzymatic activity of 7 IU/ml,"notably low enzymatic activity, which was below the sensitivity of the test (0.25 IU/ml)"
B2,The positive control lane of standard melanoma tPA also demonstrated enzymatic activity at 66 and 72 kDa positions,–,–
